Measured values published in patent US20110256142A1 (Genmab, published 2011).
Numbering of substitutions follows the chain as printed.

B1: Fully human IgG1,κ antibody 018 (P- or LC1006-018) (antibody, V domains shown)
VH: EVQLVESGGGLVQPGGSLRLSCAASGFTFSSYWMNWVRQAPGKGLEWVANIKKDGSEKYYVDSVKGRFTISRDNAKNSLYLQMNSLRAEDTAVYYCARDLGWGWGWYFDLWGRGTLVTVSS
VL: not shown
notes: Human IgG1,κ; P1006-018 uncloned, LC1006-018 cloned hybridoma; also called P1006-018
B2: Fully human IgG1,κ antibody 003 (P- or LC1006-003) (antibody, V domains shown)
VH: EVQLVESGGGLVQPGGSLRLSCAASGFTFSSYWMTWVRQAPGKGLEWVANIQQDGSEKNYLDSVKGRFTISRDNAKNSLSLQMNSLRAEDTAVYYCARTYSGFEDFWGQGTLVTVSS
VL: EIVLTQSPATLSLSPGERATLSCRASQSVSSYLAWYQQKPGQAPRLLIFDASNRATGIPARFSGSGSGTDFTLTISSLEPEDFAVYYCQQRSNWPPWTFGQGTKVEIK
notes: Human IgG1,κ; P1006-003 is the hybridoma before cloning, LC1006-003 the clone by limiting dilution; also called P1006-003
B3: Fully human IgG1,κ antibody 008 (P- or LC1006-008) (antibody, V domains shown)
VH: B2 VH with T35S, Q52K, K58E, L61V, I70V, S80Y, F106Y
VL: B2 VL
notes: Human IgG1,κ; P1006-008 uncloned, LC1006-008 cloned hybridoma; also called P1006-008

Tests used:
[1] = molecular target: T1, purified EGFR (Sigma-Aldrich, cat no. E3641) (UniProt P00533 25-1210, limits assumed); test: ELISA, plate coated with purified EGFR, anti-human IgG Fc-HRP detection
T1 construct: Bought preparation coated on ELISA plates

[2] = molecular target: T2, EGFR-vIII deletion mutant expressed on transfected Ba/F3 and A431 cells (UniProt P00533 25-1210); test: flow cytometry on Ba/F3 cells transfected with EGFR-vIII, FITC anti-human IgG F(ab')2 detection
T2 construct: whole, on cells; Deletion variant, not expressible as substitutions; also called de2-7 EGFR

Binder	EC50 [1] [µg/mL]	binding result [2]
B1	0.081	–
B2	0.117	no binding (tested: saturating concentrations)
B3	2.46	no binding (tested: saturating concentrations)
